This data set concerns Escherichia coli TOP10. As to the kind of experiment: shrunken log2 fold change of peptide-encoding DNA abundance (4.5 h post-induction vs induction); higher = less antimicrobial activity (less host growth inhibition). As to conditions: time post-induction: 4.5 h; library: site-saturation at positions 5, 18, 19, 20.
Consider RRIRDRPPRLPRPRPRPEVMPRP, for which the “shrunken log2 fold change” value came to 0.152.
In the case of RRIRDRPPRLPRPRPRPLAFPRP it was 0.334.
The result for RRIRRRPPRLPRPRPRPIMPPRP reads -0.188; that for RRIRQRPPRLPRPRPRPQKCPRP, -0.00409.
In the case of RRIRKRPPRLPRPRPRPGTDPRP it was -0.165; in that of RRIRERPPRLPRPRPRPICHPRP, -0.187; in that of RRIRNRPPRLPRPRPRPQCAPRP, -0.0727.
For RRIRERPPRLPRPRPRPSKIPRP, the “shrunken log2 fold change” value is -0.506.
In the case of RRIRERPPRLPRPRPRPVHAPRP it was -0.0762; in that of RRIRGRPPRLPRPRPRPRDMPRP, 0.339.
The result for RRIRPRPPRLPRPRPRPMSPPRP reads -0.194; that for RRIRQRPPRLPRPRPRPPPCPRP, 0.393.
The result for RRIRIRPPRLPRPRPRPGFEPRP reads 3.71; that for RRIRDRPPRLPRPRPRPSNTPRP, -0.75; that for RRIRCRPPRLPRPRPRPAQYPRP, -0.467.
Regarding RRIRVRPPRLPRPRPRPDAVPRP, the “shrunken log2 fold change” value is 0.141.
In the case of RRIRIRPPRLPRPRPRPEALPRP it was 0.00934.
On to RRIRVRPPRLPRPRPRPVKQPRP, for which the “shrunken log2 fold change” value is -0.0475.
Turning to RRIRERPPRLPRPRPRPTVPPRP, the “shrunken log2 fold change” value is -0.237.
The result for RRIRHRPPRLPRPRPRPQRMPRP reads -0.16; that for RRIRERPPRLPRPRPRPNQVPRP, -0.0305; that for RRIRMRPPRLPRPRPRPVNEPRP, 0.0186.
In the case of RRIRPRPPRLPRPRPRPGLSPRP it was 0.206; in that of RRIRNRPPRLPRPRPRPLLFPRP, -0.188.
In the case of RRIRDRPPRLPRPRPRPETVPRP, the “shrunken log2 fold change” value was -0.0114.
Take RRIRARPPRLPRPRPRPYFIPRP: the “shrunken log2 fold change” value was -0.73.
In the case of RRIRHRPPRLPRPRPRPIYQPRP it was -0.316; in that of RRIRFRPPRLPRPRPRPCTHPRP, -0.842.
In the case of RRIRIRPPRLPRPRPRPVYAPRP it was -0.517.
The result for RRIRHRPPRLPRPRPRPTFCPRP reads -0.186; that for RRIRWRPPRLPRPRPRPRDPPRP, 0.241.
On to RRIRERPPRLPRPRPRPSQGPRP, for which the “shrunken log2 fold change” value is -0.153.
The result for RRIRLRPPRLPRPRPRPAKRPRP reads 0.0374; that for RRIRQRPPRLPRPRPRPPIGPRP, 2.89; that for RRIRLRPPRLPRPRPRPWTCPRP, -0.54.
RRIRKRPPRLPRPRPRPKWVPRP: the “shrunken log2 fold change” value came to 0.339.
The result for RRIRQRPPRLPRPRPRPVSSPRP reads -0.255; that for RRIRHRPPRLPRPRPRPIKVPRP, 0.172.
RRIRPRPPRLPRPRPRPTDMPRP: the “shrunken log2 fold change” value was 0.157.
In the case of RRIRGRPPRLPRPRPRPHSCPRP it was 0.153; in that of RRIRIRPPRLPRPRPRPHVLPRP, -0.198; in that of RRIRERPPRLPRPRPRPSRCPRP, 0.0232.
In the case of RRIRKRPPRLPRPRPRPNAGPRP it was -0.00783; in that of RRIRGRPPRLPRPRPRPHAFPRP, 0.372; in that of RRIRHRPPRLPRPRPRPKRMPRP, 0.101.
RRIRFRPPRLPRPRPRPSRHPRP: the “shrunken log2 fold change” value is -0.162.
The result for RRIRSRPPRLPRPRPRPLQCPRP reads 0.116.
Turning to RRIRYRPPRLPRPRPRPDEYPRP, the “shrunken log2 fold change” value is -0.0128.
With RRIRSRPPRLPRPRPRPHSPPRP, the “shrunken log2 fold change” value turned out to be 0.146.
The result for RRIRRRPPRLPRPRPRPMYQPRP reads -0.058; that for RRIRERPPRLPRPRPRPPHFPRP, 0.568; that for RRIRLRPPRLPRPRPRPAIIPRP, -0.197.
As for RRIRERPPRLPRPRPRPQMMPRP, the “shrunken log2 fold change” value was -0.0543.
In the case of RRIRSRPPRLPRPRPRPKCHPRP it was -0.31.
Consider RRIRDRPPRLPRPRPRPWKYPRP, for which the “shrunken log2 fold change” value was -0.331.
Take RRIRIRPPRLPRPRPRPEQGPRP: the “shrunken log2 fold change” value stood at 0.0755.
The result for RRIRFRPPRLPRPRPRPCMIPRP reads -0.118.
In the case of RRIRCRPPRLPRPRPRPWGRPRP it was -0.118; in that of RRIRPRPPRLPRPRPRPILIPRP, -0.106; in that of RRIRMRPPRLPRPRPRPPEAPRP, 0.779.
The result for RRIRYRPPRLPRPRPRPWVRPRP reads -0.108.
Regarding RRIRQRPPRLPRPRPRPDVLPRP, the “shrunken log2 fold change” value amounted to 0.0137.
The result for RRIRCRPPRLPRPRPRPCKMPRP reads 5.36; that for RRIRQRPPRLPRPRPRPEFWPRP, 0.238.
Turning to RRIRQRPPRLPRPRPRPADWPRP, the “shrunken log2 fold change” value came out at 0.258.
The result for RRIRCRPPRLPRPRPRPMRGPRP reads 1.05; that for RRIRGRPPRLPRPRPRPAWNPRP, 0.378.
For RRIRWRPPRLPRPRPRPDKSPRP, the “shrunken log2 fold change” value is -0.135.
The result for RRIRMRPPRLPRPRPRPITEPRP reads -0.012; that for RRIRWRPPRLPRPRPRPYFCPRP, -0.298.
The result for RRIRLRPPRLPRPRPRPGGCPRP reads 0.177; that for RRIRQRPPRLPRPRPRPRWPPRP, 0.616.
In the case of RRIRHRPPRLPRPRPRPAQWPRP it was 0.112.
Regarding RRIRMRPPRLPRPRPRPFAMPRP, the “shrunken log2 fold change” value worked out at 0.171.
The result for RRIRTRPPRLPRPRPRPGYAPRP reads 0.111; that for RRIRARPPRLPRPRPRPGSTPRP, 0.247.
RRIRNRPPRLPRPRPRPFTTPRP: the “shrunken log2 fold change” value is -0.0245.
For RRIRNRPPRLPRPRPRPNNQPRP, the “shrunken log2 fold change” value is -0.703.
The result for RRIRPRPPRLPRPRPRPAMSPRP reads 0.128; that for RRIRVRPPRLPRPRPRPYMYPRP, -0.588.
In the case of RRIRCRPPRLPRPRPRPPNVPRP it was 0.213.
In the case of RRIRERPPRLPRPRPRPALLPRP it was -0.23; in that of RRIRQRPPRLPRPRPRPIVQPRP, -0.0505.
As for RRIRIRPPRLPRPRPRPVNWPRP, the “shrunken log2 fold change” value is -0.229.
RRIRFRPPRLPRPRPRPFCEPRP: the “shrunken log2 fold change” value is -0.124.
In the case of RRIRSRPPRLPRPRPRPCRIPRP it was -0.263; in that of RRIRYRPPRLPRPRPRPIYKPRP, -0.396.
The result for RRIRGRPPRLPRPRPRPDAHPRP reads 0.421; that for RRIRVRPPRLPRPRPRPCDCPRP, 0.00675.
In the case of RRIRDRPPRLPRPRPRPHEVPRP it was 0.0253; in that of RRIRDRPPRLPRPRPRPQMCPRP, -0.183.

Source of the values: the supplement of paper PMC9112550, “Optimization of the antimicrobial peptide Bac7 by deep mutational scanning” (BMC Biology, 2022).
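Note: peptides expressed intracellularly from a pBAD plasmid library in pooled LB shake-flask culture, induced with 0.3% L-arabinose, DNA abundance read by NGS, three biological replicates, DESeq2 with apeglm shrinkage.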
